Measurements taken from US12065505B2, “Antibodies and antigen binding peptides for factor XIa inhibitors and uses thereof” (Bristol-Myers Squibb Company, priority 2021, dated 2024).
Read-outs that look alike come from different tables or passages of the source. Blank lines part the entries; values can stand above or below the molecule they belong to.

Legend:
[1] = tested on: rabbit plasma clotting time (aPTT); assay: In vivo reversal of Compound A anticoagulant effect by Fab, rabbit plasma aPTT; settings: Compound A 1 mg/kg IV, mean of 3 animals
Protocol: In vivo experiments were conducted in accordance with the regulations of the Animal Care and Use Committee of the Bristol-Myers Squibb Company. Rabbits (male New Zealand White, 2 to 4 kg) were instrumented with indwelling catheters in the central ear artery for blood sampling and marginal ear vein for substance administration. Compound A was administered as a constant intravenous infusion at a dose of 1.0 mg/kg over 10 minutes. Beginning 20 minutes after the Compound A infusion was complete, the antibody Fab fragment 26D5-75616-348-F10-Fab-SHORT was administered as a constant intravenous infusion at a dose of 160 mg/kg over 10 minutes. […]
The anticoagulant effects of Compound A were measured in activated partial thromboplastin time (aPTT). The aPTT was determined using ACTIN® FS (Siemens/Dade-Behring) following the directions in the package insert. […] The clotting time was the time in seconds from the moment calcium chloride was added until a clot was detected. […]

[2] = Competitive TR-FRET assay, mAbs (T0 and T24); type: binding; settings: 37° C.; difference between T0 and T24 IC50s; IgG1f mAb format
Protocol: A competitive TR-FRET (time-resolved fluorescence resonance energy transfer) assay was developed to rank-order the dissociation of α-Compound A mAbs from Compound A as equilibrium is reached at 37° C. The assay buffer was HBS-N (10 mM HEPES, 150 mM NaCl, pH 7.4; GE Healthcare), 0.1% (w/v) BSA (bovine serum albumin; Sigma), 2% DMSO (dimethyl sulfoxide; Sigma). All reagents were prepared in assay buffer and dispensed in equal volumes into white 384 microplates with final volume of 20 μl per well at the following final concentrations: 4 nM COMPOUND 5, the biotinylated analog of COMPOUND 2, a 100 0.1 nM 7-pt titration of human α-Compound A antibodies, 0.1 nM europium-labeled α-mouse IgG (LANCE Eu-W1024; PerkinElmer), 5 nM streptavidin-D2 (Cisbio), and 4 nM mAb 26D5 VH_A10G_Y33A_S53P_M89V_G95A; VK_W32N_H38Q (P1-075621, the second-round optimization parent 26D5-295-B08 formatted with mouse IgG Fc). COMPOUND 5 and α-Compound A antibody titrations were added first to the microplate, and were subjected to an initial incubation at 37° C., 1000 rpm, for one hour to facilitate antibody binding to the compound. After the initial incubation period, the europium α-mouse IgG, streptavidin-D2, and 26D5-mouse IgG (P1-075621) were added sequentially, then the plate was returned to 37° C., 1000 rpm incubation. Microplates were read using a Perkin Elmer EnVision plate reader, and the measured FRET signal was defined as [665 nm]/[620 nm]*10,000. Microplates were read at 30 minutes (T0) and after 24 hour (T24) intervals. […]

[3] = SPR (Biacore) Protein A mAb capture, Compound A injected; settings: 37° C., binding to Compound A, for rank ordering only
How it was run: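 Parent and affinity-matured IgG1f mAbs were captured at 2 ug/mL on a high-density protein A chip. Compound A was injected at 100–3 nM for 2 min, with at least 450 s dissociation, at 37 °C in PBS pH 7.4 with 0.05% Tween 20 and 2% DMSO. Apparent affinities were used for rank ordering only, because off-rates were too slow to measure.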

Molecule: C[C@@H]1CCC[C@H](n2cnc(-c3cc(Cl)ccc3-n3cc(Cl)nn3)cc2=O)c2cc(ccn2)-c2c(cnn2C(F)F)NC1=O [Compound A, (5R,9S)-9-(4-(5-chloro-2-(4-chloro-1H-1,2,3-triazol-1-yl)phenyl)-6-oxopyrimidin-1(6H)-yl)-21-(difluoromethyl)-5-methyl-21H-3-aza-1(4,2)-pyridina-2(5,4)-pyrazolacyclononaphan-4-one, reference compound]
rabbit plasma aPTT increase relative to baseline [1]: approximately 2 fold

B1: 26D5-GVR-Q-FT-Fab-LONG mAb: IgG1f mAb called P1-072226, S31 in place of R31, i.e. 26D5-GV-Q (VH SEQ ID NO: 82, VL SEQ ID NO: 99) (antibody, V domains shown)
VH: EVQLVESGGGLIQPGGSLRLSCAASGFTVSSNYMSWVRQAPGKGLEWVSFIYSGGRTYYADSVKGRFTISRDNSKNTLYLQMNSLRAEDTAVYYCARGGFGGGDYWGQGTLVTVSS
VL: DIQMTQSPSSVSASVGDRVTITCRASQGISSWLAWYQQKPGKAPKLLIYAASSLQSGVPSRFSGSGSGTDFTLTISSLQPEDFATYYCQQANSFPLTFGGGTKVEIK
T0-T24 IC50 shift (Δ) [2]: 63 nM

B2: P1-072963: IgG1f mAb format of first round optimization progeny 26D5-295-B08; VH SEQ ID NO: 60, VL SEQ ID NO: 88 (antibody, V domains shown)
VH: EVQLVESGGGLIQPGGSLRLSCAASGFTVSSNAMSWVRQAPGKGLEWVSFIYPGGRTYYADSVKGRFTISRDNSKNTLYLQMNSLRAEDTAVYYCARAGFGGGDYWGQGTLVTVSS
VL: DIQMTQSPSSVSASVGDRVTITCRASQGISSNLAWYQQKPGKAPKLLIYAASSLQSGVPSRFSGSGSGTDFTLTISSLQPEDFATYYCQQANSFPLTFGGGTKVEIK
T0-T24 IC50 shift (Δ) [2]: 20.5 nM

Kd ([3]; apparent affinity, listed as 26D5-75747-0348-D07-mAb, read-out: KD): < 0.03 nM | Kd ([3]; apparent affinity, read-out: KD): < 0.02 nM | Kd ([3]; apparent): <5e-05 s⁻¹
B3: 26D5-75747-348-D07-mAb: human IgG1f/kappa mAb; VH SEQ ID NO: 57, VL SEQ ID NO: 90 (antibody, V domains shown)
VH: EVQLVESGGGLIQPGGSLRLSCAASGFTVSSNAFSWVRQAPGKGLEWVSYIYSGGRTYYADSVKGRFTISRDNSKNTLYLQMNSLRAEDTAVYYCAAAGFGGGDYWGQGTLVTVSS
VL: DIQMTQSPSSVSASVGDRVTITCRASQGISSQVAWYQQKPGKAPKLLIYYASSLQSGVPSRFSGSGSGTDFTLTISSLQPEDFATYYCQQGNEFPLTFGGGTKVEIK
T0-T24 IC50 shift (Δ) [2]: 4.3 nM | Ka ([3]; apparent): 2e+06 M⁻¹ s⁻¹
